Experimental data: patent US20220073643A1 (NANJING GENSCRIPT BIOTECH, published 2022)

Molecular target: human Claudin18.2 (human)
Assay: cell-based or functional assay

Row | Binder | CDC % Relative activity [%] | CDC EC50 [µg/mL]
1 | 242F5H2 (antibody, V domains shown) VH: EVMLVESGGGLVKPGGSLKLSCAASGFTFSSYTVSWVRQTPEKRLEWVATSIVGSTYTYFPDSVKGRFTISRDFAKNTLFLQMSSLRSEDTAMYYCSRLGRGNAMDYWGQGTSVSVSS VL: DIVMTQSPSSLTVTAGEKVTLNCRSSQSLLNSGNQKNYLTWYQQKPGQPPKLLIYWASTRESGVPDRFTGSGSGTDFTLTISSVQADDLAVYYCQNGYSYPFTFGSGTKLEIK | 149 | 0.944
2 | 239H12G9 (antibody, V domains shown) VH: QAYLQQSGAELVRSGASVKMSCKASGYTFTSHNIHWVKQTPGQGLEWIGYIYPGNGAPNYNQKFRGKATLTADTSSSTAYMQISSLTSEDSAVYFCARDYYGNSFVYWGQGTLVTVSA VL: DIVMTQSPSSLTEKAGEKVSMSCKSSQSLLNSGNQKNYLTWYQQKPGQPPKLLIYWASTRESGVPDRFTGSGSGTDFTLTISSVQAEDLAVYYCQNDYRYPFTFGAGTKLELK | 102 | 1.36
3 | 241H10A1 (antibody, V domains shown) VH: QVQLQQSGAELVKPGASVKLSCKASGYTFTSFGINWLRQRPEQGLEWIGWIFPGDGNSKYNENFKGKATLTTDKSSSTAYMQVTRLTSEDSAVYFCARFYYGNSFANWGQGTLVTVSA VL: DIVMTQSPSSLTVTAGEKVTMSCKSSQSLLNSGNQKNYLTWYQQKPGQPPKLLIYWAATRESGVPDRFTGSGSGTDFTLTISSVQAEDLAVYYCQNDYFYPFTFGGGTKLELK | 625 | 0.225
4 | 240D6F5 (antibody, V domains shown) VH: QAYLQQSGAELVRSGASVKMSCKASGYTFTSHNMHWVKQTPGQGLEWIGYIYPGNGGTNYNQKFKGKATLTADPSSSTAYMQINSLTSEDSAVYFCTRDYYGNSFAYWGQGTLVTVSA VL: DIVMTQSPSSLTEKAGERVSMSCKSSQSLFNSGNQKNYLTWYQQKPGQPPKLLIYWASTRESGVPDRFTGSGSGTDFTLTISSVQAEDLAVYYCQNDYRYPFTFGAGTKLELK | 119 | 1.17
5 | 240A8E7 (antibody, V domains shown) VH: QAYLQQSGAELVRSGASVKMSCKASGYTFTNYNIHWVKQTPGQGLEWIGYIYPGNGDNYYNQKFKGKATLTADTSSSTAYMQISSLTSEDSAVYFCARDYYGNSFAYWGQGTLVTVSA VL: DVVMTQSPSSLTVTAGEKVTMNCKSSQSLLNSGNQKNYLTWYQQKPGQPPKMLIYWASTRESGVPDRFTGSGSGTDFTLTISSVQAEDLAIYYCQNDYYYPFTFGAGTKLELK | 120 | 1.16
6 | 240F8G2 (antibody, V domains shown) VH: QAYLQQSGAELVRSGASVKMSCKASGYTFTNYNIHWVKQTPGQGLEWIGYIYPGNGGNYYNQKFKGKATLTADTSSSTAYMQISSLTSEDSAVYFCARDYYGNSFAYWGQGTLVTVSA VL: DIVVTQSPSSLTVTAGEKVTMNCKSSQSLLNSGNQKNYLTWYQQKPGQPPKLLIYWASTRESGVPDRFTGSGSGTDFTLTISSVQAEDLAIYYCQNDYYYPLTFGAGTKLELK | 126 | 1.1
7 | 243B4F2 (antibody, V domains shown) VH: QAYLQQSGAELVRSGASVKMSCKASGYTFTSHNLHWVKQTPGQGLEWIGYIYPGNGNTNYNQKFKGKATLTADTSSSTAYMQISSLTSEDSAVYFCTRDYYGNSFAYWGQGTLVTVSA VL: DIVMTQSPSSLTEKAGERVSMSCKSSQSLFNSGNQKNYLTWYQQKPGQPPKLLIYWASTRESGVPDRFTGSGSGTDFTLTISSVQAEDLAVYYCQNNYWFPFTFGAGTKLELK | 134 | 1.05
8 | 242H12D6 (antibody, V domains shown) VH: QAYLQQSGAELVRSGASVKMSCKASGYTFTSHNMHWVKQTPGQGLEWIGYIYPGNGGTNYNQKFKGKATLTADTSSSTAYMQINSLTSEDSAVYFCTRDYYGNSFAYWGQGTLVTVSA VL: DIVMTQSPSSLTEKAGERVSMSCKSSQSLFNSGNQKNYLTWYQQKPGQPPKLLIYWASTRESGVPDRFTGSGSGTDFTLTISSVQAEDLAVYYCQNDYRYPFTFGAGTKLELK | 112 | 1.26
